# Data taken from patent US20150344570A1 (published 2015).
# T1: FcγRIIb extracellular domain with C-terminal His tag (human, UniProt P31994 43-217)
# T1 construct: extracellular domain; also called FcgRIIb; 2b
# T1 sequence (looked up): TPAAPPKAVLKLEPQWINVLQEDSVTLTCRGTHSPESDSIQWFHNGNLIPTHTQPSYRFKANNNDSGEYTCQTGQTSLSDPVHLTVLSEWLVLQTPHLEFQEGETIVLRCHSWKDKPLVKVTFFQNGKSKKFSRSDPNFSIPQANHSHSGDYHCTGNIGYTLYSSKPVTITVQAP
# B1: GpH7-A5/GpH7-B3 variant Q295_02A/GpL16-k0 (antibody, human IgG1, kappa)
# heavy 1: not shown
# heavy 2: not shown
# light: DIVMTQSPLSLPVTPGEPASISCQASESLVHSNRNTYLHWYLQKPGQSPQLLIYKVSNRFSGVPDRFSGSGSGTDFTLKISRVEAEDVGVYYCSQNTHVPPTFGQGTKVEIERTVAAPSVFIFPPSDEQLKSGTASVVCLLNNFYPREAKVQWKVDNALQSGNSQESVTEQDSKDSTYSLSSTLTLSKADYEKHKVYACEVTHQGLSSPVTKSFNRGEC
# notes: Heterodimerized anti-glypican-3 IgG1; alteration only in the GpH7-B3 chain, EU numbering; also called He Ab
# B2: GpH7-A5/GpH7-B3 variant Q295_18N/GpL16-k0 (antibody, human IgG1, kappa)
# heavy 1: not shown
# heavy 2: not shown
# light: B1 light
# notes: as for B1
# B3: GpH7-A5/GpH7-B3 variant Q295_12R/GpL16-k0 (antibody, human IgG1, kappa)
# heavy 1: not shown
# heavy 2: not shown
# light: B1 light
# notes: as for B1
# B4: GpH7-A5/GpH7-B3 variant Q295_03V/GpL16-k0 (antibody, human IgG1, kappa)
# heavy 1: not shown
# heavy 2: not shown
# light: B1 light
# notes: as for B1
# B5: GpH7-A5/GpH7-B3 variant Y296_08L/GpL16-k0 (antibody, human IgG1, kappa)
# heavy 1: not shown
# heavy 2: not shown
# light: B1 light
# notes: as for B1
# B6: GpH7-A5/GpH7-B3 variant Q295_07I/GpL16-k0 (antibody, human IgG1, kappa)
# heavy 1: not shown
# heavy 2: not shown
# light: B1 light
# notes: as for B1
# B7: GpH7-A5/GpH7-B3 variant Q295_13S/GpL16-k0 (antibody, human IgG1, kappa)
# heavy 1: not shown
# heavy 2: not shown
# light: B1 light
# notes: as for B1
# B8: GpH7-A5/GpH7-B3 variant S298_01G/GpL16-k0 (antibody, human IgG1, kappa)
# heavy 1: not shown
# heavy 2: not shown
# light: B1 light
# notes: as for B1
# B9: GpH7-A5/GpH7-B3 variant S298_04F/GpL16-k0 (antibody, human IgG1, kappa)
# heavy 1: not shown
# heavy 2: not shown
# light: B1 light
# notes: as for B1
# B10: GpH7-A5/GpH7-B3 variant Y296_13S/GpL16-k0 (antibody, human IgG1, kappa)
# heavy 1: not shown
# heavy 2: not shown
# light: B1 light
# notes: as for B1
# B11: GpH7-A5/GpH7-B3 variant Q295_09D/GpL16-k0 (antibody, human IgG1, kappa)
# heavy 1: not shown
# heavy 2: not shown
# light: B1 light
# notes: as for B1
# B12: GpH7-A5/GpH7-B3 variant Q295_11K/GpL16-k0 (antibody, human IgG1, kappa)
# heavy 1: not shown
# heavy 2: not shown
# light: B1 light
# notes: as for B1
# B13: GpH7-A5/GpH7-B3 variant S298_05P/GpL16-k0 (antibody, human IgG1, kappa)
# heavy 1: not shown
# heavy 2: not shown
# light: B1 light
# notes: as for B1
# B14: GpH7-A5/GpH7-B3 variant Q295_20W/GpL16-k0 (antibody, human IgG1, kappa)
# heavy 1: not shown
# heavy 2: not shown
# light: B1 light
# notes: as for B1
# B15: GpH7-A5/GpH7-B3 variant Q295_14T/GpL16-k0 (antibody, human IgG1, kappa)
# heavy 1: not shown
# heavy 2: not shown
# light: B1 light
# notes: as for B1
# Target: T2, FcγRIa extracellular domain with C-terminal His tag (human, UniProt P12314 16-292)
# T2 construct: extracellular domain; also called FcgRI; 1a
# Assay: SPR (Biacore); He/Con_1a divided by He/Con_2b (FcγRIa binding over FcγRIIb binding)
# Method: (§1) The heterodimerized antibodies He Abs in which one of the H chains was introduced with an alteration were assayed for their binding activities to each activating FcγR and inhibitory FcγR according to the method described in Example 4. […] The activating FcγRs in FIGS. 26, 27, 28, and 29 are FcγRIa, FcγRIIa (R), FcγRIIa (H), and FcγRIIIa, respectively.
# (§2) Analysis of interaction between objective antibody and the FcγR was carried out using Biacore T100 (GE Healthcare). HBS-EP+ (GE Healthcare) was used as the running buffer, and the measurement temperature was set to 25° C. Chips produced by immobilizing the antigen peptide by the amine coupling method to a Series S Sencor Chip CM5 (GE Healthcare), or alternatively, chips produced by allowing preliminarily biotinylated antigen peptides to interact with and immobilize onto a Series S Sensor Chip SA (certified) (GE Healthcare) were used. Antibodies of interest were captured onto an antigen peptide-immobilized chip, and allowed to interact to each FcγR diluted with running buffer. To regenerate and repeatedly use the chip, the antibodies captured on the chip were washed off by reacting 10 mM glycine-HCl, pH 1.5.
# T2 sequence (P12314 16-292): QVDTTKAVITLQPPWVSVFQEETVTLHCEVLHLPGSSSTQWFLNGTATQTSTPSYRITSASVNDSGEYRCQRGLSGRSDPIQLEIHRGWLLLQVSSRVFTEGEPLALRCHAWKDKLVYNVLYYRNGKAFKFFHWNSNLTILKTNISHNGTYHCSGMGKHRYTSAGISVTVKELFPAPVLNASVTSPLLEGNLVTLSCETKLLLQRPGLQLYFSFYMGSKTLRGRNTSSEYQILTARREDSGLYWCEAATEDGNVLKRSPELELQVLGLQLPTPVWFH
row,He_1a/2b (Ia/IIb) [ratio],Binder
1,1.31,B1
2,1.58,B2
3,1.54,B3
4,1.37,B4
5,1.26,B5
6,1.22,B6
7,1.79,B7
8,1.29,B8
9,1.67,B9
10,1.22,B10
11,1.65,B11
12,1.44,B12
13,7.7,B13
14,2.11,B14
15,1.54,B15

# Target: T1, FcγRIIb extracellular domain with …
# Assay: SPR (Biacore), antibody captured via antigen peptide, FcγR as analyte; relative binding
# Method: as §1, §2
row,He/Con_2b,Binder
1,79.7 % of GpH7-A5/GpH7-B3/GpL16-k0 (=100),B1
2,64.9 % of GpH7-A5/GpH7-B3/GpL16-k0 (=100),B2
3,65.2 % of GpH7-A5/GpH7-B3/GpL16-k0 (=100),B3
4,75.7 % of GpH7-A5/GpH7-B3/GpL16-k0 (=100),B4
5,82.3 % of GpH7-A5/GpH7-B3/GpL16-k0 (=100),B5
6,84.3 % of GpH7-A5/GpH7-B3/GpL16-k0 (=100),B6
7,56.9 % of GpH7-A5/GpH7-B3/GpL16-k0 (=100),B7
8,80.1 % of GpH7-A5/GpH7-B3/GpL16-k0 (=100),B8
9,65.4 % of GpH7-A5/GpH7-B3/GpL16-k0 (=100),B9
10,86.3 % of GpH7-A5/GpH7-B3/GpL16-k0 (=100),B10
11,60.8 % of GpH7-A5/GpH7-B3/GpL16-k0 (=100),B11
12,70.4 % of GpH7-A5/GpH7-B3/GpL16-k0 (=100),B12
13,11.9 % of GpH7-A5/GpH7-B3/GpL16-k0 (=100),B13
14,44.4 % of GpH7-A5/GpH7-B3/GpL16-k0 (=100),B14
15,66.8 % of GpH7-A5/GpH7-B3/GpL16-k0 (=100),B15

# Target: T2, FcγRIa extracellular domain with …
# Assay: as above
# Method: as §1, §2
row,He/Con_1a,Binder
1,104 % of GpH7-A5/GpH7-B3/GpL16-k0 (=100),B1
2,102 % of GpH7-A5/GpH7-B3/GpL16-k0 (=100),B2
3,100 % of GpH7-A5/GpH7-B3/GpL16-k0 (=100),B3
4,104 % of GpH7-A5/GpH7-B3/GpL16-k0 (=100),B4
5,104 % of GpH7-A5/GpH7-B3/GpL16-k0 (=100),B5
6,103 % of GpH7-A5/GpH7-B3/GpL16-k0 (=100),B6
7,102 % of GpH7-A5/GpH7-B3/GpL16-k0 (=100),B7
8,104 % of GpH7-A5/GpH7-B3/GpL16-k0 (=100),B8
9,109 % of GpH7-A5/GpH7-B3/GpL16-k0 (=100),B9
10,105 % of GpH7-A5/GpH7-B3/GpL16-k0 (=100),B10
11,100 % of GpH7-A5/GpH7-B3/GpL16-k0 (=100),B11
12,101 % of GpH7-A5/GpH7-B3/GpL16-k0 (=100),B12
13,91.6 % of GpH7-A5/GpH7-B3/GpL16-k0 (=100),B13
14,93.7 % of GpH7-A5/GpH7-B3/GpL16-k0 (=100),B14
15,103 % of GpH7-A5/GpH7-B3/GpL16-k0 (=100),B15
